One molecule from patent CN110938146A (UNIV HUAZHONG AGRICULTURAL, dated 2020) can be followed below.

The target in the experiment is T1, TIM-3重组蛋白 (human, UniProt Q8TDQ0 22-200, limits assumed).
T1 construct: also called 重组TIM-3蛋白; 固定化TIM-3
T1 sequence (looked up): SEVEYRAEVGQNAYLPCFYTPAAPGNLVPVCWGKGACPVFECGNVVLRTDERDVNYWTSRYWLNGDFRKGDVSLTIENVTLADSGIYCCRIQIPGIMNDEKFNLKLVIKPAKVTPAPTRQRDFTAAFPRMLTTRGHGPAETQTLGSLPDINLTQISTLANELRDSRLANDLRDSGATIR
The experiment can be described thus: ELISA: TIM-3 coated at 5 ug/mL, biotinylated sdAb titrated 1:2 from 200 ug/mL, HRP-streptavidin, Prism fit. Background: An ELISA detects its analyte on a solid surface through an enzyme-linked reagent.

B1: TIM-3-CX153 (VHH)
VHH: QSMEESGGRLVKPDETLTLTCTVSGFSLSSYSMIWVRQAPGKGLEWIGIIGTTGNTYYASWAKGRFTISKTSTTVDLKMTSLTSEDTATYFCARYYADGVFDLWGQGTLVTVSS
notes: Expressed in E. coli BL21 from pET28 and purified on a His nickel column; also called TIM-3-CX153-HisFlag; TIM-3-CX153单抗
As a reminder, the Kd is the constant that tells how readily two partners part at equilibrium. For the molecule B1, the Kd was 0.278 µM.
